Data taken from the supplement of paper PMC10126150.
± gives the standard deviation of the averaged measurements.

Tested on: ATP
Assay: switch fluorescence ratio, 500 uM ATP over buffer (Cy3 cluster intensity, sum of 5 cycles each) (fold (ratio)); higher = stronger signal-on switching upon ATP binding; sequences stand for … in TCGTCGGCAGCGTCAGATGTGTATAAGAGACAGTTTTTTTTTTTTTTTTTTTTTTTTT…TC
Settings: aptamer strand: ATP DNA aptamer (quencher-CACCTGGGGGAGTATTGCGGAGGAAGG + anchor), 100 nM annealed; ATP concentration: 500 uM
Method in brief: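 For every switch-domain sequence, the fluorescence ratio is the mean of per-cluster values, each being summed target-cycle Cy3 intensity over summed buffer-cycle Cy3 intensity. Clusters outside 100-1000 RFU were excluded. On a modified Illumina MiSeq flow-cell, the Cy3-labelled switching-strand clusters were annealed to 100 nM quencher-labelled ATP aptamer, imaged in selection buffer and then after 15 min with 500 uM ATP at 22 °C. Five such cycles were run, with NaOH stripping and re-annealing between them.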
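Note: ATP exposure 15 min at 22 °C before imaging.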

| Sequence | switch fluorescence ratio |
| --- | --- |
| GGGGTATGCT | 1.03 ± 0.032 |
| GGGGTATGTC | 1.02 ± 0.053 |
| GGGGTATGTT | 0.99 ± 0.036 |
| GGGGTATTGA | 1.03 ± 0.037 |
| GGGGTATTGG | 0.993 ± 0.035 |
| GGGGTATTGT | 1.007 ± 0.0034 |
| GGGGTCAGGT | 1 ± 0.024 |
| GGGGTCCTTA | 1 ± 0.018 |
| GGGGTCGATG | 0.9847 ± 0.0042 |
| GGGGTCGGTG | 0.969 ± 0.03 |
| GGGGTGACGT | 1.02 ± 0.031 |
| GGGGTGCTTT | 0.987 ± 0.017 |
| GGGGTGGACG | 1.07 ± 0.021 |
| GGGGTGGATA | 0.996 ± 0.027 |
| GGGGTGGGTG | 1.03 ± 0.039 |
| GGGGTGTACC | 0.985 ± 0.033 |
| GGGGTGTAGA | 1.02 ± 0.03 |
| GGGGTGTTAG | 1.02 ± 0.012 |
| GGGGTGTTGT | 1 ± 0.04 |
| GGGGTTAAAG | 0.977 ± 0.022 |
| GGGGTTACAG | 1.01 ± 0.013 |
| GGGGTTAGCT | 0.987 ± 0.018 |
| GGGGTTATAG | 1.04 ± 0.12 |

| Sequence | switch fluorescence ratio |
| --- | --- |
| GGGGTTATTC | 0.986 ± 0.026 |
| GGGGTTCACC | 0.957 ± 0.023 |
| GGGGTTCACT | 1.01 ± 0.029 |
| GGGGTTCGTA | 0.966 ± 0.028 |
| GGGGTTGAAA | 0.973 ± 0.083 |
| GGGGTTGAAT | 1.01 ± 0.046 |
| GGGGTTGGCG | 1.117 ± 0.0064 |
| GGGGTTGGGA | 0.971 ± 0.025 |
| GGGGTTGGTC | 1.04 ± 0.048 |
| GGGGTTGGTT | 0.995 ± 0.044 |
| GGGGTTGTCA | 0.99 ± 0.058 |
| GGGGTTGTCT | 1.01 ± 0.072 |
| GGGGTTTAGT | 1.01 ± 0.022 |
| GGGGTTTATC | 1.01 ± 0.04 |
| GGGGTTTCCT | 1.11 ± 0.16 |
| GGGGTTTGAT | 0.996 ± 0.021 |
| GGGGTTTGGA | 0.987 ± 0.024 |
| GGGGTTTTAA | 0.988 ± 0.02 |
| GGGGTTTTGT | 1.01 ± 0.011 |
| GGGTAAATTG | 1.041 ± 0.0068 |
| GGGTAAATTT | 0.996 ± 0.015 |
| GGGTAACTGG | 1 ± 0.027 |
| GGGTAAGAGT | 1 ± 0.043 |

| Sequence | switch fluorescence ratio |
| --- | --- |
| GGGTAATGCG | 1.06 ± 0.058 |
| GGGTAATTGA | 0.99 ± 0.032 |
| GGGTACGCAC | 1.82 ± 0.034 |
| GGGTACGGGA | 1.06 ± 0.069 |
| GGGTACGTCA | 1.03 ± 0.071 |
| GGGTACGTCG | 0.996 ± 0.019 |
| GGGTACTATT | 0.982 ± 0.031 |
| GGGTACTGGG | 1 ± 0.034 |
| GGGTAGACTT | 0.996 ± 0.013 |
| GGGTAGGATA | 1.01 ± 0.012 |
| GGGTAGGCTT | 0.965 ± 0.023 |
| GGGTAGTCGG | 0.993 ± 0.032 |
| GGGTAGTGCG | 0.9812 ± 0.0055 |
| GGGTATCCGT | 0.979 ± 0.032 |
| GGGTATGGTA | 1 ± 0.023 |
| GGGTATGTA | 1.01 ± 0.03 |
| GGGTATTGTG | 0.994 ± 0.033 |
| GGGTATTTGT | 1 ± 0.03 |
| GGGTATTTTT | 0.994 ± 0.014 |
| GGGTCACAAA | 0.978 ± 0.01 |
| GGGTCATAGT | 1.012 ± 0.0094 |
| GGGTCATGTT | 1 ± 0.015 |
| GGGTCATTGA | 0.998 ± 0.024 |

| Sequence | switch fluorescence ratio |
| --- | --- |
| GGGTCCATGA | 1.03 ± 0.05 |
| GGGTCCGAAT | 1.02 ± 0.016 |
| GGGTCGGCCG | 0.983 ± 0.033 |
| GGGTCGGGTA | 1.04 ± 0.017 |
| GGGTCTCAGT | 0.994 ± 0.032 |
| GGGTCTGAGT | 0.9621 ± 0.009 |
| GGGTCTGTTG | 0.975 ± 0.013 |
| GGGTCTTTGG | 0.97 ± 0.023 |
| GGGTGAAAAC | 1.03 ± 0.014 |
| GGGTGAAAGG | 0.996 ± 0.025 |
| GGGTGAAATT | 0.986 ± 0.035 |
| GGGTGAATGG | 0.9976 ± 0.0016 |
| GGGTGAGATC | 1.02 ± 0.012 |
| GGGTGAGGAG | 0.998 ± 0.025 |
| GGGTGAGGTA | 0.97888 ± 0.00072 |
| GGGTGAGGTG | 0.98 ± 0.068 |
| GGGTGATCGG | 0.984 ± 0.023 |
| GGGTGATTTT | 0.992 ± 0.049 |
| GGGTGCTGCC | 1 ± 0.037 |
| GGGTGCTGTG | 1 ± 0.034 |
| GGGTGGACCT | 1.13 ± 0.048 |
| GGGTGGCAAG | 0.996 ± 0.03 |
| GGGTGGCCTG | 1.03 ± 0.077 |

| Sequence | switch fluorescence ratio |
| --- | --- |
| GGGTGGGCAT | 1.03 ± 0.013 |
| GGGTGGGCGT | 1.05 ± 0.043 |
| GGGTGGGGTC | 1 ± 0.034 |
| GGGTGGGTGC | 1.02 ± 0.048 |
| GGGTGGTAGG | 1 ± 0.028 |
| GGGTGGTGCT | 0.978 ± 0.021 |
| GGGTGGTTAC | 0.99 ± 0.044 |
| GGGTGTACCT | 1.039 ± 0.0043 |
| GGGTGTGCAT | 1.04 ± 0.016 |
| GGGTGTGGGG | 0.989 ± 0.046 |
| GGGTGTGGGT | 0.965 ± 0.026 |
| GGGTGTTCCT | 0.989 ± 0.039 |
| GGGTGTTTCT | 1.01 ± 0.028 |
| GGGTTAAAGG | 1 ± 0.015 |
| GGGTTAAGTA | 0.993 ± 0.031 |
| GGGTTAATAC | 1.29 ± 0.069 |
| GGGTTAATGG | 0.986 ± 0.011 |
| GGGTTACAGC | 1 ± 0.026 |
| GGGTTATGTT | 0.977 ± 0.024 |
| GGGTTCATTG | 0.974 ± 0.033 |
| GGGTTCTATG | 1.004 ± 0.0042 |
| GGGTTGAGTG | 0.982 ± 0.028 |
| GGGTTGATGA | 1.012 ± 0.0093 |

| Sequence | switch fluorescence ratio |
| --- | --- |
| GGGTTGCACG | 0.9936 ± 0.0015 |
| GGGTTGCGGA | 0.966 ± 0.035 |
| GGGTTGCGTA | 1.006 ± 0.0027 |
| GGGTTGGACG | 1.02 ± 0.053 |
| GGGTTGGATG | 0.996 ± 0.025 |
| GGGTTGGGCT | 1 ± 0.03 |
| GGGTTGGTCG | 0.955 ± 0.016 |
| GGGTTGGTGG | 0.992 ± 0.029 |
| GGGTTGGTTT | 1.0207 ± 0.00021 |
| GGGTTGTAAG | 0.986 ± 0.013 |
| GGGTTGTCGA | 0.952 ± 0.011 |
| GGGTTTAATG | 0.96 ± 0.016 |
| GGGTTTAGAA | 0.979 ± 0.049 |
| GGGTTTAGAG | 0.9877 ± 0.0093 |
| GGGTTTAGTA | 0.998 ± 0.02 |
| GGGTTTATGG | 0.987 ± 0.056 |
| GGGTTTCAAG | 1.05 ± 0.04 |
| GGGTTTGAA | 0.988 ± 0.021 |
| GGGTTTGACT | 0.998 ± 0.031 |
| GGGTTTGGAA | 0.961 ± 0.027 |
| GGGTTTGGAT | 0.984 ± 0.025 |
| GGGTTTGGTT | 0.976 ± 0.041 |
| GGGTTTGTAT | 0.979 ± 0.046 |

| Sequence | switch fluorescence ratio |
| --- | --- |
| GGGTTTGTCA | 1.02 ± 0.029 |
| GGGTTTTAAC | 0.9798 ± 0.0034 |
| GGGTTTTAGG | 0.999 ± 0.032 |
| GGGTTTTAGT | 1.01 ± 0.029 |
| GGGTTTTATA | 1.016 ± 0.01 |
| GGGTTTTGCT | 0.955 ± 0.028 |
| GGGTTTTGTG | 1.01 ± 0.022 |
| GGGTTTTTGT | 1.04 ± 0.055 |
| GGTAAAGGGA | 1.01 ± 0.036 |
| GGTAAAGGTT | 0.999 ± 0.034 |
| GGTAACACCA | 1.015 ± 0.0095 |
| GGTAACGTAG | 0.991 ± 0.022 |
| GGTAAGATGG | 0.995 ± 0.032 |
| GGTAAGTAGG | 1.03 ± 0.042 |
| GGTAATAAGG | 1.05 ± 0.028 |
| GGTAATGTTT | 1.01 ± 0.014 |
| GGTACAGTTT | 0.975 ± 0.019 |
| GGTACCTTAG | 1.059 ± 0.0087 |
| GGTACCTTTG | 0.9729 ± 0.009 |
